Results as given in US20050277575A1 (published 2005).

Target: T1, S100A4 protein (recombinant human, GST tag removed) (human)
T1 chain: YVERW
Assay: cell-based or functional assay

IC50 for inhibition of the accelerating effect of S100A4 on t-PA-dependent conversion of plasminogen to plasmin: 6 µM
Binder: Ac-AGLREVYGASLASYMERW-NH2 [peptide SEQ ID NO 6, Ac-AGLREVYGASLASYMERW-amide]
